The supplement of paper PMC7125110
± gives the standard error. For part of these data: This sample holds only a part of the variants without activity.

B1: glmS ribozyme (parent)
chain: AUAAAAGCGCCAGAACUACAGAAAUGUAGUUGACGAGGAGGAGGUUUAUCGAAUUUUCGGCGGAUGCCUCCAAA

Assays:
Conditions in all cases: with glucosamine-6-phosphate
glucosamine-6-phosphate [1] = variants of: B1; test: kcat; higher = faster cleavage; RNA array
Procedure, shortened: (§1)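 Glucosamine-6-phosphate, from 40 μM to 10 mM in HEPES/KCl/Mg(OAc)2 buffer, was flowed over sequenced MiSeq chips carrying barcoded ribozyme variants transcribed in situ by E. coli RNA polymerase. A hybridised Cy3 probe tracked the variants at 37 °C as tiles were imaged over ~14 h. kobs, kcat and KM were obtained by fitting normalised per-tile medians to exponential decays and then applying weighted Michaelis–Menten fits across concentrations.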

glucosamine-6-phosphate [2] = variants of: B1; test: KM; higher = weaker cofactor use; RNA array
Procedure, shortened: as §1

glucosamine-6-phosphate [3] = variants of: B1; test: self-cleavage kobs at 2500 uM GlcN6P; higher = faster cleavage; RNA array
Procedure, shortened: as §1

glucosamine-6-phosphate [4] = variants of: B1; test: self-cleavage kobs at 10000 uM GlcN6P; higher = faster cleavage; RNA array
Procedure, shortened: as §1

glucosamine-6-phosphate [5] = variants of: B1; test: self-cleavage kobs at 640 uM GlcN6P; higher = faster cleavage; RNA array
Procedure, shortened: as §1

glucosamine-6-phosphate [6] = variants of: B1; test: self-cleavage kobs at 40 uM GlcN6P; higher = faster cleavage; RNA array
Procedure, shortened: as §1

glucosamine-6-phosphate [7] = variants of: B1; test: self-cleavage kobs at 160 uM GlcN6P; higher = faster cleavage; RNA array
Procedure, shortened: as §1

Row | Variant | kcat (glucosamine-6-phosphate [1]) [s⁻¹] | KM (glucosamine-6-phosphate [2]) [µM] | self-cleavage kobs at 2500 uM GlcN6P (glucosamine-6-phosphate [3]) [s⁻¹] | self-cleavage kobs at 10000 uM GlcN6P (glucosamine-6-phosphate [4]) [s⁻¹] | self-cleavage kobs at 640 uM GlcN6P (glucosamine-6-phosphate [5]) [s⁻¹] | self-cleavage kobs at 40 uM GlcN6P (glucosamine-6-phosphate [6]) [s⁻¹] | self-cleavage kobs at 160 uM GlcN6P (glucosamine-6-phosphate [7]) [s⁻¹]
1 | C16G U30A U65G | 0.000143 ± 7.4e-06 | 4140 ± 530 | 5.44e-05 ± 2e-05 | 0.000101 ± 2.1e-05 | – | – | –
2 | C16A U69G | 7.88e-05 ± 1.9e-05 | – | 6.89e-05 ± 1.5e-05 | – | 7.48e-05 ± 1.5e-05 | – | –
3 | C16A G38U | < 1e-05 | – | < 1e-05 | – | – | – | –
4 | A15U U54G U65G | 0.000547 ± 5.8e-05 | 1670 ± 300 | 0.00039 ± 0.00013 | 0.00045 ± 0.00011 | 0.000149 ± 2.4e-05 | – | –
5 | C16A A42C | < 1e-05 | – | < 1e-05 | < 1e-05 | – | < 1e-05 | < 1e-05
6 | A15U C50U | 2.32e-05 ± 2.6e-06 | – | – | – | – | – | –
7 | A15U U30G | 0.0605 ± 0.018 | 3400 ± 1200 | 0.0219 ± 0.0035 | 0.0582 ± 0.012 | 0.00977 ± 0.0011 | 0.000777 ± 7.3e-05 | 0.00242 ± 0.00032
8 | A15U U45A | 0.0179 ± 0.0054 | 3230 ± 1300 | 0.00648 ± 0.0023 | 0.0145 ± 0.0023 | 0.00219 ± 0.00059 | 0.000298 ± 4.7e-05 | 0.000772 ± 0.00017
9 | A15U U55A | 0.00715 ± 0.0012 | 2060 ± 490 | 0.00588 ± 0.0011 | 0.00586 ± 0.00053 | 0.00147 ± 0.00021 | 0.000164 ± 1.8e-05 | 0.000472 ± 5.3e-05
10 | C16G U30A | 0.000474 ± 6e-05 | 1780 ± 370 | 0.000313 ± 6.1e-05 | 0.000372 ± 9.2e-05 | 0.00012 ± 2.3e-05 | – | 3.9e-05 ± 1.2e-05
11 | A15U U65G | 0.00187 ± 0.00077 | – | 0.00056 ± 0.00017 | 0.00139 ± 0.00025 | 0.00036 ± 4.5e-05 | 3.19e-05 ± 1.1e-05 | 6.21e-05 ± 1e-05
12 | C16G U54A | 0.00588 ± 0.0013 | 1860 ± 560 | 0.0024 ± 0.00062 | 0.00601 ± 0.00089 | 0.00144 ± 0.00019 | 0.000135 ± 1.8e-05 | 0.000487 ± 0.00011
13 | C16G U54G | 0.00297 ± 0.00074 | 1080 ± 460 | 0.00175 ± 0.0004 | 0.00291 ± 0.00046 | 0.00211 ± 0.0008 | 0.000177 ± 3.8e-05 | 0.000312 ± 6.7e-05
14 | C16A U45C | 9.45e-05 ± 2.3e-05 | – | 8.36e-05 ± 2.3e-05 | 7.72e-05 ± 1.4e-05 | – | – | –
15 | C16A C71A | 0.000128 ± 2e-05 | – | 0.000187 ± 3.1e-05 | 0.000114 ± 1.2e-05 | 7.22e-05 ± 1.1e-05 | – | 3.26e-05 ± 1.3e-05
